B1: Human enterovirus 109 (nucleic acid, listed as Enterovirus sp.)
DNA: TTTAAAACAGCCTGGGGGTTGTTCCCACCCCCAGGGCCCACTGGGCGTTAGTACTCTGGTATCGCGGTACCTTAGTATGCCTGTTTTATGTCTCCTTTCCCCCGCAACTTTAGAAGTAATCAAGTTATGGCTCAACAGTCGCCACACCCCCAGTGTGGTTCCGAGCAAGCACTTCTGTTCCCCGGTTGCGTCTTATATGCTGTGTGAACGGCAGAAAGGGACAATATCGTTATCCGCTCAACTACTACGGGAAGCCTAGTACCACCATGGATTGACCTGAAAGTTGCGTTCAGCGCACCCCCAGCGCAGCTCAGGCCGATGAGGCTCCGAATACCCCACGGGCGACCGTGTCGGAGCCTGCGTTGGCGGCCTGCCCACGTTGCAAAACGTGGGACGCTCATTTCATGACATGGTGCGAAGAGCCTACTGTGCTAGTTGAGAGTCCTCCGGCCCCTGAATGTGGATAATCCTAACCACTGAACCTACGGGCGCAAACCAGCGTCTGGTAGGCCGTAACGCGCAAGTCGGTGGCGGAACCAACTACTTTGGGTGTCCGTGTTTCCTTTTATCTTTTTGAATGTTTATGGTGACAATTGTTGTGTACAGTTGTTACCATAGTTTGCATTCAGAAATAAACCTAACACTTTCCAATTATTTGTTACA
B2: Human enterovirus C105 (nucleic acid, listed as Enterovirus sp.)
DNA: CCCCTAGGATCCACTGGATGTCAGTACACTGGTATCGTGGTACCTTTGTACGCCTGTTTTATACCCCCTTCCCCGCAACTTTAGAAGCATCAAAAGCACCGCTCAATAGTCACCACACCCCCAGTGTGGTTTCGAGCAAGCACTTCTGTTTTCCCGGTTGCGTCCCATATGCTGTGCAAACGGCAAAAAGGGACAATATCGTTACCCGCTTGTATACTACGGGAAACCTAGTACCACCATTGATTGTGTTGAGAGTTGCGCTCATCACCTTTCCCCGGTGTAGCTCAGGCCGATGAGGCTCAGAATCCCCCACAGGTGACTGTGTCTGAGCCTGCGTTGGCGGCCTGCCCTCGCCTTATGGCGTGGGACGCTTGATACATGACATGGTGCGAAGAGTCTACTGTGCTATGCAAGAGTCCTCCGGCCCCTGAATGTGGCTAATCCTAACCACTGATCCCACGCACGCAAACCAGTGTGTAGTGGGTCGTAACGCGCAAGTCGGTGGCGGAACCAACTACTTTGGGTGACCGTGTTTCCTTTATTACTTATTGAATGTTTATGGTGACAATTGTTTGATTCAGTTGTTGCCATTCTCTACATTCATTTACCCAGCATCAAACCAATTGAACTGTTACA
B3: Murine Kobuvirus 1 (nucleic acid, listed as Kobuvirus sp.)
DNA: GTAACTTCAAGTGTGTGTGCTCGTAATCTTGACTCCTGCCGGAATGCCGCCCGGTTCAGTGAACAAACAGCTAGGCAAGTCCCTCCCTTCCCCTGTGGTCGGTTCTCACCGGCCACCATCCCTCCCCCAGCCTGACGTGTTACAGGCTGTGCAAAGCCCCCGCGAAAGCTGCTCACGTGGCAATTGTGGGTCCCCCCTTTGTCAAGACACCGAGTCTTTCTCCCTTAAGGCTAGCCCGGTCCCACGAACGTGGAACTGGCAACTAGTGGTGTCACTACACGCCTCCGACCTCGGACGCGGAGTGCTGTTCCCCAAGCTGTAACCCTGACCCAAGACTGTGCTGCCTGGCAAGCACCGTCTGGGAAGATGTTCCGCTGTGGCTGCCAAACCTGGTAACAGGTGCCCCAGTGTGTGTAGTCTTCCTCCAGTCTCCGGACTGGCAGTCTTGTGTAAAGATGCAGTGTAAGGTTCAAGTGCCAAATCCCTGGAAGGAGTGACCCTCTACTGCCCTAGGAATGCTGTGCAGGTACCCCCAACTTCGGTTGGGGATCTGAGCACAGGCTAATTGTCTACGGGTAGTTTCATTTCCCATCCTCTCTTTTTTGGCATC
B4: Bovine picornavirus (nucleic acid)
DNA: TTTTCTCCCCTCCCCCTCCAACTACCTTTTCCCCCTCTTGTAACGCTAGAAGTTTGTGCAAACCGCCTGTAGGGTACTGCAATCCAGCAGTGCATAGGCTAAGCTTTTCTTGTTACCCCACCCCACATTATACTGAGGAGGATTGTGAAATTGTGTTAGTATGGGTTAGTAGCGGTGACCCGGGTAACCCCAACCCAGAAACTCACGGATGAGATGAACAGGACCCCACATGGTAACGTGTGTGTTCGTCTGCCCCGCAAGGTGAGGCCGTGAGAGCTTTGCACGCGAAAACCTTGAAAACCCAAAAGTACCTTGAGCTCTTCGCTATTTTGTGTTTCCTCCAGGACCCTGAATGCGGCTAAACCTAACCCGCGATCCGCACGTAGCAACCCAGCTAGAGTGTGGTCGTAATGCGCAAGTTGCGGGCGGTACCGACTACTTTGGTGTTCCTGTGTTTCCTTTATTTTATTTTGAATTTTTATGGTGACAACAGCTAGAAAATAAGAGTGAAC
B5: Aichivirus DV (nucleic acid, listed as Aichivirus sp.)
DNA: TACTCCATTCAGCTTCTTCGGAACCTGTTCGGAGGAATTAAACGGGCACCCATACACCCCCACCCCCTTTTCTGCAACTTAAGTATGTGTGCTCGTAATCTTGACTCCCACGGAACGGATCGATCCGCTGGAGAACAAACTGCTAGATCCACATCCTCCCTTCCCCTGGGAGGACCCCGGTCCTCCCACATCCTCCCCCCAGCCTGACGTAACACAGGCTGTGTGAAGTCCCCGCGAAAGCTGCTCACGTGGCAATTGTGGGTCCCCCCTTCACCAAGACACCAGGTCTTTCCTCCTTAAGGCTAGCCCCGATGTGTGAATTCACATTGGGCAACTAGTGGTGTCACTGTGCGCTCCCAATCTCGGCCGCGGAGTGCTGTTCCCCAAGCCAAACCCCTGGCCCTTCACTATGTGCCTGGCAAGCATATCTGAGAAGGTGTTCCGCTGTGGCTGCCAGCCTGGTAACAGGTGCCCCAGTGTGCGTAACCTTCTTCCGTCTCCGGACGGTAGTGATTGGTTAAGATTTGGTGTAAGGTTCATGTGCCAACGCCCTGTGCGGGATGAAACCTCTACTGCCCTAGGAATGCCAGGCAGGTACCCCACCTTCGGGTGGGATCTGAGCCTGGGCTAATTGTCTACGGGTAGTTTCATTTCCAATTCTTTTATGTCGGAGTC
B6: Porcine Kobuvirus XX (nucleic acid, listed as Kobuvirus sp.)
DNA: CCACCGTTACTTCACTCCACTCCCTCGGGACTGGTTTGGAGGAGCATAACAGGGCTTCCCATCCCTGTTCACCCTCAATACCACCCACCCTTTCCCTCAACCATCCCTATCCACACCCCACTGACTGATTCCCTTGGATTTTGACCTCAGAACGCCTACTTGACCTCCCACTTGCCTTTCCCTTCTCGGATTGCCGGTGGTGCCTGGCGGAAAAAGCACAAGTGTGTTGCAGGCTACCAAACTCCTACCCGACAAAGGTACGTGTCCGCGTGCTGAGTAATGGGATAGGAGATGCCTACAACAGGCTCGCCCATGAGTAGAGCATGGACTGCGGTGCATGTGACTTCGGTCACCACGGGCATAGCATTGCTCACCCGTGAATCAAGTCATTGAGATTCCTCTGACCTCTGAAGTGCACTGTGGTTGCGTGGCTGGGAATCCACGCTTGACCATGTACTGCTTGATAGAGTCGCGGCTGGCCGACTCATGGGTTAAAGTCAGTTGATAAGACAC

system: HEK293 cells; assay type: cell-based, human; conditions: luminescence from secreted Gluc in supernatant 24 hours after transfection of HEK293 cells; circular RNA encoding Gluc with the named IRES (UTR truncated to 675 nt)

Question: For B1, which Expression is on record?
Answer: 4.92E+05

Question: B2 was tested. Which Expression did it give?
Answer: 5.49E+05

Question: B3 was tested. Which Expression did it give?
Answer: 1.60E+07

Question: B4 was tested. Which Expression did it give?
Answer: 3.82E+06

Question: How did the Expression turn out when B5 was run?
Answer: 7.79E+07

Question: With B6 as the molecule, how does the Expression read?
Answer: 1.32E+07

— US20230226096A1 (Orna Therapeutics, Inc., priority 2020, published 2023)
